Publication doi:10.64898/2026.08.21.746223
Read-outs that look alike come from different tables or passages of the source.

What was measured:
[1] = molecular target: PelC (P. aeruginosa PAO1, PA3062), outer membrane lipoprotein (Pseudomonas aeruginosa PAO1); experiment: cryo-EM structure
[2] = molecular target: PelC (P. aeruginosa PAO1, PA3062), outer membrane lipoprotein (Pseudomonas aeruginosa PAO1); experiment: cryo-EM structure; remark: listed apart in the source

PelC (P. aeruginosa PAO1, PA3062), outer membrane lipoprotein (natural protein)
stoichiometry N [1]: 12
stoichiometry N [2]: 12
